Test results reported in publication PMC3630135, “Tenascin C Promiscuously Binds Growth Factors via Its Fifth Fibronectin Type III-Like Domain” (PLoS ONE, 2013).

T1: GST-TNCIII5 (human, UniProt P24821 983-1074)
T1 construct: tenascin C, fifth TNCIII domain, T983–A1074; source: E. coli BL21, purified (Ni-NTA agarose)
T1 sequence (looked up): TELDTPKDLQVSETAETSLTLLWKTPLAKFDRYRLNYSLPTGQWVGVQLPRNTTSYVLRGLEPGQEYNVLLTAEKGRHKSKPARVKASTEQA


Legend:
[1] = target: TNCIII1–5 (first five fibronectin type III-like repeats of human tenascin C, with N-terminal transglutaminase substrate and C-terminal 6xHis tag) (UniProt P24821); assay: SPR; Biacore X100; about 450 RU TNCIII1–5 amine-coupled on Sensor Chip C1, BSA on the control channel; growth factors flowed in PBS with 0.1% BSA at 30 µl/min; Langmuir fit
neurotrophin-3 (human) = neurotrophin-3 (human) (UniProt P20783); assay: ELISA; as a1 but with 4 µM heparin (40-fold excess over 100 nM TNCIII1-5) during the incubation with TNCIII1-5
[2] = target: Bone morphogenetic protein (BMP)-2 (human) (UniProt P12643); assay: as above
[3] = target: Bone morphogenetic protein (BMP)-2 (human) (UniProt P12643); assay: ELISA; cross-competition: growth factor (50 nM) coated; 10 nM TNCIII1–5 with full length TNC (0, 0.2, 0.6, 1.9, 5.6, […], 50 nM) in PBST, 1 h RT; TNCIII1–5 detected with HRP-anti-HIS; relative to binding without TNC
FGF-2 (human) = FGF-2 (human) (UniProt P09038); assay: as above
GST-TNCIII5 = target: T1, GST-TNCIII5; assay: ELISA; GST-TNCIII domains (1 µM in PBS) coated, blocked with 2% BSA; 2 nM PDGF-BB, 1 h RT; detected with anti-PDGF-BB and HRP anti-mouse; conditions: both partners purified

Sequence of Bone morphogenetic protein (BMP)-2 (human) (P12643 283-396): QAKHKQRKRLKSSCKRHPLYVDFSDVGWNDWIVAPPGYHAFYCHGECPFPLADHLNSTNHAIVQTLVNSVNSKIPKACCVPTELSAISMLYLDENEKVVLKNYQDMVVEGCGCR
Sequence of FGF-2 (human) (P09038 143-288): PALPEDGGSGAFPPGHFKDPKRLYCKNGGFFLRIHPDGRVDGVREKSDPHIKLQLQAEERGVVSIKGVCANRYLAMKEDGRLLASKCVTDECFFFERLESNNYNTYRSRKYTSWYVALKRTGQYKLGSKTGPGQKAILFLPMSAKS

| Molecule | Kd [1] [nM] | koff [1] [s⁻¹] | kon [1] [M⁻¹ s⁻¹] | other results |
| --- | --- | --- | --- | --- |
| TGF-β1 (ligand) | 20.3 | 0.000237 | 11700 | – |
| TNCIII1–5 (first five fibronectin type III-like repeats of human tenascin C, with N-terminal transglutaminase substrate and C-terminal 6xHis tag) (from UniProt P24821 622-1074) (domain or fragment) | – | – | – | percent of the original binding retained with 4 µM heparin (neurotrophin-3 (human)): 57%; percent of the original binding retained with 4 µM heparin [2]: 66% |
| full-length native human tenascin C (from UniProt P24821 23-2201) (natural protein) | – | – | – | IC50 [3]: > 50 nM; percent inhibition of TNCIII1–5 binding at 50 nM TNC [3]: 34%; IC50 (FGF-2 (human)): 5.6 nM |
| PDGF-BB (ligand, human, UniProt P01127 82-190, looked up, Two B chains by its name; source: bought: Gibco) SLGSLTIAEPAMIAECKTRTEVFEISRRLIDRTNANFLVWPPCVEVQRCSGCCNNRNVQCRPTQVQLRPVQVRKIEIVRKKPIFKKATVTLEDHLACKCETVAAARPVT | – | – | – | fold binding level against TNCIII4 (GST-TNCIII5): 4 fold |
| neurotrophin-3 (ligand) YAEHKSHRGEYSVCDSESLWVTDKSSAIDIRGHQVTVLGEIKTGNSPVKQYFYETRCKEARPVKNGCRGIDDKHWNSQCKTSQTYVRALTSENNKLVGWRWIRIDTSCVCALSRKIGRT | 21 | 0.00106 | 50700 | – |
